The target in one assay is human thrombin (human, UniProt P00734 328-622). In words: cell-based or functional assay.
Assay [1] addresses platelet GPIIb/IIIa receptor (human, UniProt P08514 32-1039; P05106 27-788). In words: cell-based or functional assay.

This note sets out measurements from patent publication US20180305409A1 (SHAANXI MICOT TECHNOLOGY, published 2018).

Bridge positions count the residues as written; N and C are the ends. Square brackets hold non-standard residues; d marks the D form. Ends that are not written are not given here. hArg = N=C(N)NCCCC[C@H](N)C(=O)O Bounds are passed on as bounds.

platelet GPIIb/IIIa receptor, sequence (P08514 32-1039, chain 1 of 2): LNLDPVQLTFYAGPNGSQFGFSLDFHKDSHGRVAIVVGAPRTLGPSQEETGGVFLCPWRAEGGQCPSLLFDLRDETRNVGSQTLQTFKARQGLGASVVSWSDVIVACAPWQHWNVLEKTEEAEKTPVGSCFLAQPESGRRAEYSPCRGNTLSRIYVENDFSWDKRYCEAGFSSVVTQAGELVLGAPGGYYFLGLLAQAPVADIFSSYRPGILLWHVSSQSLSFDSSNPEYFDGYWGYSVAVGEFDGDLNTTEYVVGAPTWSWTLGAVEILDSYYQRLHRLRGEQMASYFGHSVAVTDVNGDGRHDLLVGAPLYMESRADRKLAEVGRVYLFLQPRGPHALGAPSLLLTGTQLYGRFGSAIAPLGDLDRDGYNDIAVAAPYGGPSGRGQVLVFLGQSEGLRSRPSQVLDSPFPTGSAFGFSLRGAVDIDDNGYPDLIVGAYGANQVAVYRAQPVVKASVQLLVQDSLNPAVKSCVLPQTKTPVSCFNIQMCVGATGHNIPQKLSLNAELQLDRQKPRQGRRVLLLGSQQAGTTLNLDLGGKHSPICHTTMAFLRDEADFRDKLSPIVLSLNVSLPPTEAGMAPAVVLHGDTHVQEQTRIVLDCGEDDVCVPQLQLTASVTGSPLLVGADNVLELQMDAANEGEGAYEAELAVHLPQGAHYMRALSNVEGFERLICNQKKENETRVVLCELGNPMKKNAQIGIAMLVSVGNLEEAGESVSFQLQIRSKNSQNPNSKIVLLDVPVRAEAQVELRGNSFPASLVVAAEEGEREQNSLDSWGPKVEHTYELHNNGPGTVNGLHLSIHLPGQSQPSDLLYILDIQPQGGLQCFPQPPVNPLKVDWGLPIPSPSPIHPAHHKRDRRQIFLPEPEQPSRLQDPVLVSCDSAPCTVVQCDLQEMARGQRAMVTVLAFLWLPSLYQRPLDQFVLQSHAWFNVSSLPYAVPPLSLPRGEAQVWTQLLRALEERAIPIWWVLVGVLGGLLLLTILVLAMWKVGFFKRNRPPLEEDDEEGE
platelet GPIIb/IIIa receptor, sequence (P05106 27-788, chain 2 of 2): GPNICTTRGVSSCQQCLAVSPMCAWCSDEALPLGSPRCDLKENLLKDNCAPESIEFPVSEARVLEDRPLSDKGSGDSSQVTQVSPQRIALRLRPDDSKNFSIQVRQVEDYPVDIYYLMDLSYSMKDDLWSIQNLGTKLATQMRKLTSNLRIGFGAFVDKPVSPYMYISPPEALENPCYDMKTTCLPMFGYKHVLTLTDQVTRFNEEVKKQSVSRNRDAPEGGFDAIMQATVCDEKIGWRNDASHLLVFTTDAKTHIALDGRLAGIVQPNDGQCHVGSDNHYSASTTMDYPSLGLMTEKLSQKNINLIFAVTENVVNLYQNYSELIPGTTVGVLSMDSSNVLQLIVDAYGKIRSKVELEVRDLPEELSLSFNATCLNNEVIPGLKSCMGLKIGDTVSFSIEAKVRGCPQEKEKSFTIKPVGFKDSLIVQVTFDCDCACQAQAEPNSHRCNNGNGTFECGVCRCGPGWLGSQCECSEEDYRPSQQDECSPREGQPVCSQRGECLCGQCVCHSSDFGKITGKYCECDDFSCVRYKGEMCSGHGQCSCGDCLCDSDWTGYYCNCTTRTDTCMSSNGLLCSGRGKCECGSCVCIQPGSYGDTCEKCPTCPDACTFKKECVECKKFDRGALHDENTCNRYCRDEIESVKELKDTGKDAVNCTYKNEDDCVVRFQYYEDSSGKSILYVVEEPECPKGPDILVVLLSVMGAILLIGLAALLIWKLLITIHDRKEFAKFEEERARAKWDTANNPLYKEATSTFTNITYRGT

For the molecule [dF]PRPGGGGNGRFEEIPEEYLEAAAKC[hArg]GDWPC (disulfide 26-32) [polypeptide 2], in the assay with human thrombin, the “APTT(S), human platelet poor plasma in vitro, 1 × 10^-6 mol/L (saline 33.10)” value was found to be 104 s; the “Fold of Prolongation in APTT, 1 × 10^-6 mol/L” value was found to be 3.35 fold; the “Fold of Prolongation in PT, 1 × 10^-6 mol/L” value stood at 3.04 fold; the “PT(S), human platelet poor plasma in vitro, 1 × 10^-6 mol/L (saline 11.22)” value turned out to be 34.8 s. In the assay with human thrombin, the “TT(S), human platelet poor plasma in vitro, 1 × 10^-6 mol/L (saline 14.07)” value is above 180 s. In assay [1], the “Inhibitory rate of platelet aggregation (%), ADP-induced human platelet aggregation in vitro, 1 × 10-5 mol/L” value was found to be 100%; the “Inhibitory rate of platelet aggregation (%), ADP-induced human platelet aggregation in vitro, 3 × 10-6 mol/L” value worked out at 66.7%; the “Platelet aggregation rate (%), ADP-induced human platelet aggregation in vitro, 1 × 10-5 mol/L (saline 73.39)” value was determined as 0%; the “Platelet aggregation rate (%), ADP-induced human platelet aggregation in vitro, 3 × 10-6 mol/L (saline 73.39)” value worked out at 26.1%.

B1: polypeptide 3 (peptide)
peptide: FPRPGGGGNGDFEEIPEEYLCXGDWPC
modifications: D-Phe at position 1 (N-terminal); Har (homoarginine) at position 22; disulfide bond between the two Cys (21 and 27)
Regarding B1, in the assay with human thrombin, the “APTT(S), human platelet poor plasma in vitro, 1 × 10^-6 mol/L (saline 33.10)” value turned out to be 102 s; the “Fold of Prolongation in APTT, 1 × 10^-6 mol/L” value was found to be 2.94 fold; the “Fold of Prolongation in PT, 1 × 10^-6 mol/L” value came out at 2.14 fold; the “PT(S), human platelet poor plasma in vitro, 1 × 10^-6 mol/L (saline 11.22)” value amounted to 25.7 s. In the assay with human thrombin, the “TT(S), human platelet poor plasma in vitro, 1 × 10^-6 mol/L (saline 14.07)” value is above 180 s. Besides, in assay [1], the “Inhibitory rate of platelet aggregation (%), ADP-induced human platelet aggregation in vitro, 1 × 10-5 mol/L” value came out at 47.1%; the “Inhibitory rate of platelet aggregation (%), ADP-induced human platelet aggregation in vitro, 3 × 10-6 mol/L” value stood at 26.4%; the “Platelet aggregation rate (%), ADP-induced human platelet aggregation in vitro, 1 × 10-5 mol/L (saline 73.39)” value is 35.4%; the “Platelet aggregation rate (%), ADP-induced human platelet aggregation in vitro, 3 × 10-6 mol/L (saline 73.39)” value came out at 57.9%.
